Test results taken from US20130142788A1 (published 2013).
Where two headings read alike, the source gives them in different places.

T1: recombinant mature dimeric myostatin (human and mouse (mature sequences 100% …, UniProt O08689 268-376))
T1 sequence: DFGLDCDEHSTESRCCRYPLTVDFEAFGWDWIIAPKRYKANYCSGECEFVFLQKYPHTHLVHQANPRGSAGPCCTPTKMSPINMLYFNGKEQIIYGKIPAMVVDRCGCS

T2: rhBMP9 (human, UniProt Q9UK05)
T2 construct: recombinant (rh); form not further stated; member of the growth factor panel m51, named only on the sheet
T2 sequence (looked up): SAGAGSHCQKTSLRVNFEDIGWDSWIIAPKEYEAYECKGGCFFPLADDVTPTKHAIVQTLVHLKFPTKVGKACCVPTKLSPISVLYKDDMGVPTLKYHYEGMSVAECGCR

T3: rhBMP6 (human, UniProt P22004)
T3 construct: recombinant (rh); form not further stated; member of the growth factor panel m51, named only on the sheet
T3 sequence (looked up): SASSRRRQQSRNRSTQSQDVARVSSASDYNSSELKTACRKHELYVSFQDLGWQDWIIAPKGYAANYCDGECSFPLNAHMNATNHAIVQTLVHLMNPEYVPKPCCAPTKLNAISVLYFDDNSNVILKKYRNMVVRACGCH

T4: GDF-11 (UniProt O95390 299-407)
T4 construct: also called Growth and Differentiation Factor-11
T4 sequence (looked up): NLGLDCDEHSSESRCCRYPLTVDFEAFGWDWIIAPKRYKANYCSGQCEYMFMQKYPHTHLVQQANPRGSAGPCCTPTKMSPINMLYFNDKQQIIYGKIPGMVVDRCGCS

T5: Fc R 2a Arg polymorphism (UniProt P12318 34-217, limits assumed)
T5 construct: also called FcγRIIa Arg
T5 sequence (looked up): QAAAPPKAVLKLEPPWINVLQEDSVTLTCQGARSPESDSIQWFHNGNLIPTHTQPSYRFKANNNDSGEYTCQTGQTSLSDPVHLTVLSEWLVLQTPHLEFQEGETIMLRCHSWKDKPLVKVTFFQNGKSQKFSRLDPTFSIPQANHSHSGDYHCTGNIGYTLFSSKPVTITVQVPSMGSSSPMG

T6: Fc R 2a His polymorphism (UniProt P12318 34-217, limits assumed)
T6 construct: also called FcγRIIa His
T6 sequence (looked up): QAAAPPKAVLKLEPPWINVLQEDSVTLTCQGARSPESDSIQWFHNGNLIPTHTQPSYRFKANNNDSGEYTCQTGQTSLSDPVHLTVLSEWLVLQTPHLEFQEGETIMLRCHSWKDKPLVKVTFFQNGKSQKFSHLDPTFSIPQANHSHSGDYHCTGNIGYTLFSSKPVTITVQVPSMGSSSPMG


What was measured:
[1] = target: T1, recombinant mature dimeric myostatin; assay: cell-based or functional assay
[2] = target: T1, recombinant mature dimeric myostatin; assay: BIAcore T100 SPR, antibody captured on protein A, myostatin analyte, all curves Bivalent model
Protocol: (§1) The affinity of 10B3 mouse parental and 10B3C for recombinant myostatin was assessed by BIAcore™ (surface plasmon resonance) analysis. Analysis was carried out by the use of a capture surface: anti-mouse IgG was coupled to a C1 chip by primary amine coupling for 10B3 mouse parental; and a protein A surface was created on a C1 chip by primary amine coupling for 10B3 chimera.
(§2) After capture, recombinant myostatin was passed over the surface at 64 nM, 16 nM, 4 nM, 1 nM, 0.25 nM and 0.0625 nM, with a buffer injection (i.e. 0 nM) used for double referencing. There was a regeneration step between each analyte injection, after which the new antibody capture event occurred before the next injection of myostatin. The data was analysed using both the 1:1 model and the Bivalent model inherent to the T100 machines analysis software (see Table 6). Both capture surfaces could be regenerated using 100 mM phosphoric acid, the work was carried out using HBS-EP as the running buffer and using 25° C. as the analysis temperature.

[3] = target: T1, recombinant mature dimeric myostatin; assay: Kinexa solution phase affinity
Protocol: Kinexa (Sapidyne Instruments) solution phase affinity was used to determine the overall affinity for a range of anti-myostatin molecules. Myostatin beads were prepared either by adsorption (polymethylmethacrylate beads-PMMA) or amine coupling (NHS-activated sepharose beads). The range of anti-myostatin molecules studied necessitated the generation of beads coated with different concentrations of myostatin. For the solution phase portion of the assay, a fixed concentration of antibody was incubated with a broad range of myostatin concentrations and allowed to reach equilibrium by incubation at r.t. for at least 2 h before analysis proceeded. The myostatin beads were then used to determine the amount of free antibody present in the solution phase samples, by means of the free antibody binding to the myostatin bead matrix then detected using an appropriate secondary antibody (either anti-human or anti-mouse depending on the construct being tested) labelled with a fluorescent dye. The binding curves where fitted using the Kinexa Pro analysis software inherent to the machine. Multiple runs using varying starting concentrations of antibody were then compiled and analysed using the n-curve analysis software to give a more accurate determination of affinity.

[4] = target: T1, recombinant mature dimeric myostatin; assay: BIAcore T100 SPR, antibody captured on protein A, myostatin analyte, all curves 1:1 model
Protocol: as §1, §2

[5] = target: T1, recombinant mature dimeric myostatin; assay: ActRIIb receptor neutralisation ELISA: antibody pre-incubated with 2 nM biotinylated myostatin, binding to coated ActRIIb
Protocol: Recombinant soluble ActRIIb (R&D Systems 339-RBB) was coated in wells of an ELISA plate at 1 μg/ml in carbonate buffer overnight at 4° C. Plates were blocked (see Block solution above at 2.3) and washed following standard ELISA protocols. In parallel, 2 nM biotinylated myostatin (in-house, as described in 1.1, biotinylated material) was pre-incubated with an antibody dilution series consisting of 10B3, 10B3C, and a negative control (IgG1 isotype control) for 2 hours at 37° C. The biotinylated myostatin:antibody reactions were then added to the ActRIIb coated plate for 1 hour at 37° C. Standard wash procedures were followed prior to addition of 1:1000 diluted streptavidin-HRP conjugate (Dako P0397) and a further 37° C. incubation for 1 hour. Plates were again washed and assayed at absorbance 490 nm following OPD substrate (Sigma) and acid stop solution treatment. Inhibition curves and IC50 values for the inhibition of myostatin activity are shown in FIG. 5 and Table 8 respectively.

[6] = target: T1, recombinant mature dimeric myostatin; assay: ELISA, myostatin coated at 10 ng/well
Protocol: 10B3 and 10B3 chimera (10B3C) bound myostatin (R&D Systems, 788-G8-010/CF) in a sandwich ELISA. Plates were coated with myostatin at 10 ng/well and blocked with Block solution (PBS, 0.1% TWEEN and 1% BSA). Following washing (PBS, 0.1% TWEEN), antibody was incubated at 37° C. for 2 hours over a dilution series and plates washed again prior to incubation at 37° C. for 1 hour with anti-mouse HRP or anti-human HRP (Dako, P0161 & Sigma, A-8400, respectively). Plates were again washed and OPD substrate (Sigma, P9187) added until colourometric reaction occurred and the reaction stopped by the addition of H₂SO₄.

[7] = target: T1, recombinant mature dimeric myostatin; assay: cell-based or functional assay; remark: listed apart in the source
[8] = target: T1, recombinant mature dimeric myostatin; assay: cell-based or functional assay; remark: listed apart in the source
[9] = target: T1, recombinant mature dimeric myostatin; assay: cell-based or functional assay; remark: listed apart in the source
rhBMP9 = target: T2, rhBMP9; assay: ELISA: plate coated with the growth factor at 0.5 µg/ml, H8L5 titrated; read-out % Bound
rhBMP6 = target: T3, rhBMP6; assay: as above
GDF-11 = target: T4, GDF-11; assay: ELISA, growth factors coated at 0.5 µg/ml, H8L5 titrated
Protocol: An ELISA was performed to determine whether H8L5 might bind any other growth factors and especially other members of the TGF family which were known to share some homology around the proposed epitope sequence. By coating an ELISA plate with the various growth factors at 0.5 μg/ml and titrating in H8L5 under standard ELISA conditions, It was concluded that the only other factor tested to which H8L5 could bind was GDF-11 wherein the concentration required to give 50% binding was 3-fold lower than myostatin (FIG. 22).

Fc R 2a Arg polymorphism = target: T5, Fc R 2a Arg polymorphism; assay: ProteOn XPR36 SPR, antibody immobilised, receptor 8-2048 nM, equilibrium model
Protocol: (§3) Binding analysis to Fc R5 and C1q was carried out using the ProteOn XPR36. The test antibodies (H8L5 and Fc-disabled H8L5) were immobilised on a GLC biosensor chip by primary amine coupling. The Fc Rs were used at 2048 nM, 512 nM, 128 nM, 32 nM and 8 nM, while C1q was used at 512 nM, 128 nM, 32 nM, 8 nM and 2 nM. A buffer injection (i.e. 0 nM) was used to double reference the binding sensorgrams. Due to the nature of the interaction (i.e. fast on/fast-off) regeneration was not required and the binding sensorgrams returned to baseline by use of a 20 min dissociation time and subsequent buffer injections. The data was fitted to the Equilibrium model inherent to the PrateOn's analysis software, using a global R-max for each receptor group and for C1q binding (i.e. Fc R 2aHis and Arg polymorphisms were analysed together and Fc R3aPhe and Val polymorphisms were analysed together, while C1q was analysed separately).

Fc R 2a His polymorphism = target: T6, Fc R 2a His polymorphism; assay: as above
Protocol: as §3

Fc R3a Phe polymorphism = target: T7, Fc R3a Phe polymorphism (UniProt P08637 17-208, limits assumed); assay: as above
T7 construct: also called FcγRIIIa Phe
Protocol: as §3

Fc R3a Val polymorphism = target: T8, Fc R3a Val polymorphism (UniProt P08637 17-208, limits assumed); assay: as above
T8 construct: also called FcγRIIIa Val
Protocol: as §3

[10] = target: T1, recombinant mature dimeric myostatin; assay: ActRIIb neutralisation ELISA: inhibition of 2 nM biotinylated myostatin binding to coated ActRIIb
Protocol: Recombinant soluble ActRIIb (R&D Systems 339-RBB) was coated in wells of an ELISA plate at 1 μg/ml in carbonate buffer overnight at 4° C. Plates were blocked with PBS containing 0.1% tween 20 and 0.1% BSA and washed following standard ELISA protocols. In parallel, 2 nM biotinylated myostatin (in-house reagent, described above) was pre-incubated with a dilution series of the antibodies of Tables 21 and 22 for 30 minutes at 37° C. The biotinylated myostatin:antibody reactions were then added (50 μl/well) to the ActRIIb coated plate for 1 hour at 37° C. Standard wash procedures were followed prior to addition of 50 μl per well of a 1:200 diluted streptavidin-HRP conjugate (R&D Systems. #890803) followed by a further 37° C. incubation for 1 hour. Plates were again washed and assayed at absorbance 490 nm following substrate (R&D Systems, #DY999) and acid stop solution treatment.

T7 sequence (P08637 17-208 limits assumed): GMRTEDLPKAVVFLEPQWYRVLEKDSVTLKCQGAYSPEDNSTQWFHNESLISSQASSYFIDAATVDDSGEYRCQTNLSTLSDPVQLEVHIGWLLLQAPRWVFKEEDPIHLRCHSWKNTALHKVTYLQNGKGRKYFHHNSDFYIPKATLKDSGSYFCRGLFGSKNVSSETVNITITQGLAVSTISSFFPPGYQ
T8 sequence (P08637 17-208 F176V limits assumed): as the sequence (P08637 17-208 limits assumed) above, with F160V counted along it

Binder | IC50, myostatin responsive reporter gene assay (A204 cells, luciferase) [1] | Kd [2] | Kd [3] | Kd [4] | IC50 [5] | EC50 [6] | Mean IC50, A204 in vitro activity assay [7] | Mean IC50, A204 in vitro activity assay [8] | IC50, myostatin responsive reporter gene neutralisation assay (A204) [9] | binding result (rhBMP9) | binding result (rhBMP6) | fold lower concentration required to give 50% binding than for myostatin (GDF-11) | binding result (Fc R 2a Arg polymorphism) | binding result (Fc R 2a His polymorphism) | binding result (Fc R3a Phe polymorphism) | binding result (Fc R3a Val polymorphism) | IC50 [10]
10B3 chimera (antibody, human IgG1, V domains shown, 10B3 variable regions on human IgG1/k wild type constant regions; also called HCLC; HcLc) VH: EVQLQQSGPELVKPGASVKISCKASGYSFTGYFMHWVKQSHGNILDWIGNIYPYNGVSNYNQRFKAKATLTVDKSSSTAYMELRSLTSEDSAVYYCARRYYYGTGPADWYFDVWGTGTLVTVSS VL: DIKMTQSPSSMYASLRERVTITCKASQDINSYLSWFQQKPGKSPKTLIYRANRLVDGVPSRFSGSGSGQDYSLTISSLEYEDMGIYYCLQCDEFPLTFGAGTKLELKR | 6.2 nM | 3.6 nM | 0.548 nM | 0.088 nM | 0.138 µg/mL | 0.049 µg/mL | 3.57 nM | 3.53 nM | – | – | – | – | – | – | – | – | –
H8L5 (antibody, IgG1, Humanised IgG1/kappa; also called 10B3H8L5; copies: 2 + 2) heavy: not shown light: DIQMTQSPSSLSASVGDRVTITCKASQDINSYLSWFQQKPGKAPKTLIYRANRLVDGVPSKFSGSGSGTDYTLTISSLQPEDFATYYCLQSDEFPLTFGQGTKLEIKRTVAAPSVFIFPPSDEQLKSGTASVVCLLNNFYPREAKVQWKVDNALQSGNSQESVTEQDSKDSTYSLSSTLTLSKADYEKHKVYACEVTHQGLSSPVTKSFNRGEC | – | – | 0.05 nM | – | – | – | – | – | 5 nM | no binding (tested: 10^-7 (axis prints no unit)) | no binding (tested: 10^-7 (axis prints no unit)) | 3 fold | binds | binds | binds | binds | 0.101 nM
Fc-disabled H8L5 (antibody, IgG1, hIgG1 Fc disabled (L235A, G237A, EU numbering); also called H8L5 disabled; H8disabledL5; copies: 2 + 2) heavy: not shown light: DIQMTQSPSSLSASVGDRVTITCKASQDINSYLSWFQQKPGKAPKTLIYRANRLVDGVPSKFSGSGSGTDYTLTISSLQPEDFATYYCLQSDEFPLTFGQGTKLEIKRTVAAPSVFIFPPSDEQLKSGTASVVCLLNNFYPREAKVQWKVDNALQSGNSQESVTEQDSKDSTYSLSSTLTLSKADYEKHKVYACEVTHQGLSSPVTKSFNRGEC | – | – | – | – | – | – | – | – | – | – | – | – | binds | binds | binds | binds | –
